Laboratory results as given in patent publication US20150004133A1, “Compositions And Methods For Treating Steatohepatitis, Liver Fibrosis, and Hepatocellular Carcinoma (HCC)” (The Regents of the University of California, priority 2013, published 2015).

Experiments:
primary murine HSCs = assay: Collagen-α1(I)-GFP expression in primary HSCs from Col-GFP reporter mice; format: cell-based, mouse; conditions: 48 hours; for expression of GFP (percent of cells upregulated collagen-α1(I)-GFP): IL-17A 10 ng/ml
Description: (§1) FIG. 9. […] Representative images are shown using ×20 objective. […] Deletion of Stat3 in HSCs was achieved by crossing GFAP-Cre mice×floxed Stat3^f/f mice=GFAP^Stat3−/− mice. […] Nuclear translocation of Stat3 (but not phosphor-Smad2/3) was detected in wild type HSCs but not in Stat3-deficient HSCs. Representative images are shown using ×20 objective. (E) IL-17-dependent collagen-α1(I) expression is impaired in Stat3-deficient HSCs.
For this purpose, primary HSCs were isolated from Col-GFP reporter mice (expressing GFP under collagen-α1(I) promoter) or Col-GFP^IL-17RA−/− mice (generated by crossing IL-17RA^−/− mice with Col-GFP mice, FIG. 9B).

Stat3 = assay: Nuclear translocation of Stat3 in HSCs (fluorescent microscopy); format: cell-based, mouse; conditions: primary murine HSCs, IL-17A 10 ng/ml
Description: as §1
Next, phosphorylation of IL-17 target proteins in KC and HSCs was assessed in vitro (FIG. 18E). […] While the IL-17 signaling pathway in macrophages is characterized^8,22 (and FIG. 18F), IL-17 signaling in HSCs is unknown. […] Thus, similar to macropahges^8,22, NF-κB and Stat3 are downstream targets of IL-17 signaling in HSCs. While NF-κB signaling is required for survival of activated HSC^23, Stat3 may mediate HSC activation by stimulating collagen production.

[1] = test system: primary wild type HSCs and Stat3-deficient HSCs; assay: IL-17A-dependent collagen-α1(I) expression in wild type and Stat3-deficient HSCs; format: cell-based, mouse; conditions: IL-17A 10 ng/ml, 8 h
Description: as §1
HSCs are the only liver cell type that expresses GFAP^1. The role of Stat3 in IL-17A-mediated collagen-α1(I) expression was tested in primary wild type HSCs and Stat3-deficient HSCs, isolated from GFAP^Stat3−/− mice (GFAP^Cre mice×floxed Stat3^f/f mice, FIG. 9D). […] Next, the relevance of IL-17 signaling was accessed in human HSC cell lines.

BDL-operated mice = assay: BDL-induced liver fibrosis in mice with daily administration of IL-22 or IL-17E; format: in vivo; conditions: 0.5 μg/mouse daily for 7 days, compared to BDL wt mice+PBS
Description: FIG. 11. IL-23 and IL-22 have opposing roles in liver fibrosis. […] Quantification of Sirius Red and α-SMA staining, mRNA expression is shown (p<0.05, compared to BDL wt mice). mRNA expression is fold induction compared to oil-control Wt→wt mice. (D) The percent of inhibition of liver fibrosis was calculated for BM chimeric mice in response to liver injury (in comparison Wt→wt mice, 100%, p<0.01) based on Sirius Red and α-SMA expression. […] Increased fibrosis was detected in IL-22^−/−→wt mice. (E) Administration of IL-22 and IL-17E attenuates liver fibrosis. BDL-operated mice were daily treated with IL-22 (0.5 μg/mouse, n=4), IL-17E (0.5 μg/mouse n=5), or vehicle (PBS) for 7 days, tissues were analyzed by Sirius Red, and α-SMA staining; mRNA expression is shown (p<0.05, compared to BDL wt mice+PBS).
Liver injury was induced in mice by […] with CCl4 (1:4 dilution in corn oil, 200 μl×12 injections^2) or by BDL (3 weeks)^2.
The role of IL-22 and IL-17E in liver fibrosis was examined in BDL-operated mice, injected with IL-22 (0.5 μg/mouse) or IL-17E (0.5 μg/mouse, FIG. 11E).

LX-2 human HSC cell line = assay: Fibrogenic gene mRNA induction in the LX-2 cell line (RT-PCR); format: cell-based; conditions: LX-2, 10 ng/ml, 72 h, compared with non-stimulated cells
Description: RT-PCR and real time quantitative PCR. […] Methods.
mRNA was isolated and RT-PCR was performed using ABI 7000 sequence detection system (Applied Biosystems), specific primers and SYBRGreen. Ct values of each sample were normalized to 18s mRNA expression. Values were expressed as fold induction in comparison with untreated or sham controls.

Molecule: IL-17A: IL-17 family cytokine mainly produced by CD4+ Th17 cells; purchased from R&D
- expression of GFP (percent of cells upregulated collagen-α1(I)-GFP) (primary murine HSCs; IL-17RA−/− HSCs (Col-GFP IL-17RA−/−)): 5±2%
- expression of GFP (percent of cells upregulated collagen-α1(I)-GFP) (primary murine HSCs; wild type Col-GFP HSCs, baseline 1±0%): 34±7%
- time to nuclear translocation of Stat3 in HSCs (Stat3): 10 to 15 min
- collagen-α1(I) expression ([1]; Stat3-deficient HSCs from GFAP Stat3−/− mice): failed to induce
- collagen-α1(I) expression ([1]; wild type (Stat3f/f) HSCs): induced

Molecule: TGF-β1: fibrogenic cytokine used as a control; purchased from R&D [reference compound]
- expression of collagen-α1(I)-GFP (primary murine HSCs; both wild type and IL-17RA−/− HSCs, TGF-β1 3 ng/ml, control): strongly induced

B1: IL-17E: Interleukin 25; cytokine that binds to IL-17RA and IL-17RB heterodimers (protein)
chain: YSHWPSCCPSKGQDTSEELLRWSTVPVPPLEPARPNRHPESCRASEDGPLNSRAISPWRYELDRDLNRLPQDLYHARCLCPHCVSLQTGSHMDPRGNSELLYHNQTVFYRRPCHGEKGTHKGYCLERRLYRVSLACVCVRPRVMG
- reduction of Sirius Red staining (BDL-operated mice): 3 fold
- reduction of mRNA for Col-α1(I) (BDL-operated mice): 3 fold
- reduction of mRNA for α-SMA (BDL-operated mice): 2.5 fold

B2: IL-22: protein that in humans is encoded by the IL22 gene; cytokine purchased from R&D (protein, UniProt Q9GZX6 34-179, looked up)
Interleukin-22: APISSHCRLDKSNFQQPYITNRTFMLAKEASLADNNTDVRLIGEKLFHGVSMSERCYLMKQVLNFTLEEVLFPQSDRFQPYMQEVVPFLARLSNRLSTCHIEGDDLHIQRNVQKLKDTVKKLGESGEIKAIGELDLLFMSLRNACI
- reduction of Sirius Red staining (BDL-operated mice): 3 fold
- reduction of mRNA for Col-α1(I) (BDL-operated mice): 3 fold
- reduction of mRNA for α-SMA (BDL-operated mice): 2.5 fold

B3: IL-17F: IL-17 family cytokine; purchased from R&D (protein, UniProt Q96PD4 31-163, looked up)
Interleukin-17F: RKIPKVGHTFFQKPESCPPVPGGSMKLDIGIINENQRVSMSRNIESRSTSPWNYTVTWDPNRYPSEVVQAQCRNLGCINAQGKEDISMNSVPIQQETLVVRRKHQGCSVSFQLEKVLVTVGCTCVTPVIHHVQ
- induction of Col-α1(I) mRNA (LX-2 human HSC cell line): 7 fold
- induction of α-SMA mRNA (LX-2 human HSC cell line): 6 fold
